Experimental data reported in PMC7641770, “Novel polyadenylylation-dependent neutralization mechanism of the HEPN/MNT toxin/antitoxin system” (Nucleic Acids Research, 2020).

Experiments:
[1] = molecular target: T1, MntA antitoxin (SO_3165) of Shewanella oneidensis, untagged (Shewanella oneidensis, UniProt Q8ECH7 1-139); experiment: pull-down; conditions: partners not purified
T1 construct: also called MNT antitoxin; native MntA

[2] = molecular target: the molecule itself; experiment: crystal structure
[3] = molecular target: T1, MntA antitoxin (SO_3165) of Shewanella …; experiment: crystal structure; co-expressed complex purified (Superdex 200, 20 mM Tris pH 8.0, 150 mM NaCl), sitting drop vapor diffusion at 16°C; (HepT)6-(MntA)2 hetero-octamer; conditions: both partners purified
[4] = molecular target: the molecule itself; experiment: as above
[5] = molecular target: MntA D39E,D41E (SO_3165) of Shewanella oneidensis, untagged (Shewanella oneidensis, UniProt Q8ECH7 1-139, D39E | D41E); experiment: crystal structure; conditions: both partners purified

B1: HepT toxin (SO_3166) of Shewanella oneidensis, C-terminal His6 tag, polyadenylylated at Y104 by co-produced MntA (natural protein, UniProt Q8ECH6 1-133, looked up)
chain: MNDIIINKIATIKRCIKRIQQVYGDGSQFKQDFTLQDSVILNLQRCCEACIDIANHINRQQQLGIPQSSRDSFTLLAQNNLITQPLSDNLKKMVGLRNIAVHDYQELNLDIVVHVVQHHLEDFEQFIDVIKAE
notes: also called HEPN toxin; modified HepT
B1: binds [1]; binds [2].

B2: HepT Y104A (SO_3166) of Shewanella oneidensis, C-terminal His6 tag (natural protein, UniProt Q8ECH6 1-133, looked up)
chain: MNDIIINKIATIKRCIKRIQQVYGDGSQFKQDFTLQDSVILNLQRCCEACIDIANHINRQQQLGIPQSSRDSFTLLAQNNLITQPLSDNLKKMVGLRNIAVHDAQELNLDIVVHVVQHHLEDFEQFIDVIKAE
notes: also called unmodified HepT^Y104A
B2: binds [3]; binds [4].

B3: HepT toxin (SO_3166) of Shewanella oneidensis, C-terminal His6 tag, unmodified (co-produced with an inactive MntA variant) (natural protein, UniProt Q8ECH6 1-133, looked up)
chain: MNDIIINKIATIKRCIKRIQQVYGDGSQFKQDFTLQDSVILNLQRCCEACIDIANHINRQQQLGIPQSSRDSFTLLAQNNLITQPLSDNLKKMVGLRNIAVHDYQELNLDIVVHVVQHHLEDFEQFIDVIKAE
notes: also called unmodified HepT
B3: binds [5].
